# Data from US20230312745A1.
# B1: Secondary scFv (scFv of clone RG7/1.30, without lipidation motif) (scFv)
# scFv: HHHHHHEVQLLQSGPELVKPGASVKIPCKASGYTFTDYNMDWVKQSHEKSLEWIGYINPYSGDTIYNHKFKDKATLTVYKSSNIAYMELRSLTSEDTAVYYCARGGYDYGDHWGQGTTLTVSSGSAGGGGSGGGGSGGGGSDIKMTQSPSSMYASLGERVTITCKASQDINSYLSWFQQKPGKSPKTLIYRANRLVDGVPSRFSGSGSGQDYSLTISSLEYEDMGIYYCLQDDEFPRTFGGGTKLEIK
# B2: ASSET (Anchored Secondary scFv Enabling Targeting) (scFv, part only; not given: mCherry fusion partner, part only)
# scFv, part: CDQSSSEVQLLQSGPELVKPGASVKIPCKASGYTFTDYNMDWVKQSHEKSLEWIGYINPYSGDTIYNHKFKDKATLTVYKSSNIAYMELRSLTSEDTAVYYCARGGYDYGDHWGQGTTLTVSSGSAGGGGSGGGGSGGGGSDIKMTQSPSSMYASLGERVTITCKASQDINSYLSWFQQKPGKSPKTLIYRANRLVDGVPSRFSGSGSGQDYSLTISSLEYEDMGIYYCLQDDEFPRTFGGGTKLEIKHHHHHH
# modifications: N-terminal cysteine of the CDQSSS NlpA motif is lipidated (bacterial lipidation)
# Legend:
# [1] = biological target: Ly6C on mouse blood mononuclear cells (mouse) (UniProt P0CW02); assay: flow cytometry contour plot of live mononuclear-gated blood cells 1 h after injection into DSS treated mice; upper left quadrant 9.7; Mock panel 14.6 and 0.30
# UniProt P0CW02, sequence (P0CW02 27-109): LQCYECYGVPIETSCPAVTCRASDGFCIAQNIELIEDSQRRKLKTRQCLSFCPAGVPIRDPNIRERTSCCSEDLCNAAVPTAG
# [2] = biological target: LFA-1 on the mouse T cell lymphoma cell line TK1 (mouse) (UniProt P24063); assay: flow cytometry, control: secondary scFv on TK1 cells without RIg; left gate 97.9; unstain 1.87; target taken as the LFA-1 carried by TK1 cells
# [3] = biological target: Rat IgG2a (RIg), clone FIB504 (BioXcell); assay: ELISA, plate coated with RIg, serial dilutions of ASSET, anti-His detection
# [4] = biological target: anti-CD34 antibody (clone mec14.7) RIg, self-assembled on ASSET LNPs (TsiLNPs); assay: RIg taken up by ASSET LNPs, acrylamide gel against free RIg dilutions / western blot after 1 MDa dialysis
# [5] = biological target: Rat IgG2a (RIg), clone FIB504 (BioXcell); assay: ELISA on coated RIg, ASSET LNPs after dialysis, pre-incubated with 0.2% Triton X-100
molecule,measurement,setting,value
"isotype control RIg (BioXcell), self-assembled on ASSET LNPs (TsiLNPs) (antibody)","number in the upper right quadrant (Ly6C high, siCy5 high)",[1],0.53
B1,number in the right (positive) gate of the histogram,[2],2.06
B2,Kd,[3],10 nM
same,IgG incorporation,[4],98.3%
same,functionality maintained after incorporation into LNPs,[5],95.8%
